Data from US20250179160A1 (OMEROS, published 2025).

Experiments:
[1] = target: T1, recombinant human mature Factor D (human, UniProt P00746 26-253); assay: sandwich ELISA: coat 3C5 (human IgG4), sample titrated (ug/ml Df), detection 14A11 (mouse IgG2a), HRP donkey anti-mouse IgG; OD450
T1 construct: also called mature CFD; hCFD
Excerpt: (§1) An HRP-labeled F(ab′)₂ fragment donkey anti-mouse IgG H&L antibody (Jackson ImmunoResearch) was used to signal the detection antibody, followed by development with TMB substrate (ThermoFisher).

[2] = target: T1, recombinant human mature Factor D; assay: sandwich ELISA: coat 12H10 (human IgG4), sample titrated (ug/ml Df), detection 14A11 (mouse IgG2a), HRP donkey anti-mouse IgG; OD450
Excerpt: as §1

[3] = target: T2, recombinant cynomolgus mature Factor D (cynomolgus monkey); assay: as above
T2 construct: mature; not tied by words to this reagent; also called cy Mat CFD; cynomolgus recombinant mature Factor D
Excerpt: as §1

[4] = target: T1, recombinant human mature Factor D; assay: sandwich ELISA: coat 3C5 (human IgG4) 3 ug/mL, sample in 3-fold dilutions (ug/ml Df), detection 14A11 (mouse IgG2a) 3 ug/mL, HRP donkey anti-mouse IgG; OD450
Description: as §1
(§2) Wells were then washed three times. […] The plates were washed three times. 100 μL of Horseradish Peroxidase labeled F(ab′)2 Fragment Donkey anti-Mouse IgG H&L antibody (Jackson ImmunoResearch), diluted 1:30,000, was added to each well and incubated for one hour at room temperature. Wells were then washed three times.

[5] = target: T2, recombinant cynomolgus mature Factor D; assay: as above
Description: as §1, §2

[6] = target: T3, purified (from human plasma) human Factor D (human, UniProt P00746 26-253); assay: as above
T3 construct: also called hu purif; CFD; purified human complement factor D (Complement Technologies)
Description: as §1, §2

[7] = target: T2, recombinant cynomolgus mature Factor D; assay: sandwich ELISA standard curve: coat 3C5 (human IgG4) 3 ug/mL, recombinant cynomolgus mature Factor D titrated, detection 14A11 3 ug/mL, HRP donkey anti-mouse IgG; OD450
Excerpt: After washing, an HRP-labeled secondary antibody (HRP-labeled F(ab′)2 Fragment Donkey anti-Mouse IgG H&L antibody (Jackson ImmunoResearch)) was used to signal the detection antibody, followed by development with TMB (ThermoFisher). Samples were interpolated from a 4-parameter logistics curve of cynomolgus recombinant mature Factor D dilutions.

[8] = target: T4, recombinant human Pro-Factor D (human, UniProt P00746 20-253); assay: sandwich ELISA: coat goat polyclonal AF1824; 2 ug/mL recombinant CFD spiked into buffer or 10% Factor D-depleted serum; detection with 14A11 hybridoma supernatant diluted in half, HRP goat anti-mouse IgG Fc; OD450
T4 construct: also used for the endogenous pro-Factor D detected in 3MC patient serum; also called pro CFD; hPro-CFD
Description: ELISA plates were coated overnight at 4° C. with polyclonal goat anti-human CFD AF1824 (R&D Systems). Plate wells were washed, blocked, and washed again. Normal human serum pool, normal human plasma pool or Factor D-depleted human serum were diluted 10-fold in assay buffer (PBS with 1% BSA and 0.05% Tween 20, PBST-BSA), either un-spiked or spiked with 2 μg/mL recombinant pro-(pro CFD) or mature-factor D (mature CFD). These matrices, including a buffer control with or without recombinant protein spiked in, were incubated for 60 minutes at room temperature, and then washed. […] The detection antibodies were incubated for one hour at room temperature and washed, then developed with a horseradish peroxidase (HRP)-labeled goat polyclonal to mouse IgG Fc (Jackson ImmunoResearch).

| Binder | EC50 (read off the curve) [1] [µg/mL] | EC50 (read off the curve) [2] [µg/mL] | EC50 (read off the curve) [3] [µg/mL] | EC50 (read off the curve) [4] [µg/mL] | EC50 (read off the curve) [5] [µg/mL] | EC50 (read off the curve) [6] [µg/mL] | EC50 (read off the curve) [7] [µg/mL] | binding result [8] |
| --- | --- | --- | --- | --- | --- | --- | --- | --- |
| 14A11, mouse IgG2a Fc version (antibody, Recombinant, mouse IgG2a and mouse kappa constant regions; also called mAb 14A11; detection antibody 14A11 (anti-human/cyno mature-Factor D-specific)) heavy: QITLKESGPGILQSSQTLSLTCSFSGVSLTTSGMGVSWIRQPSGKGLEWLAHIYWDDEKHYHPSLKSRLTISKDASRNQVFFRILSVDTADTATYYCALRYYGYRSFMDYWGQGTSVTVSSAKTTAPSVYPLAPVCGDTTGSSVTLGCLVKGYFPEPVTLTWNSGSLSSGVHTFPAVLQSDLYTLSSSVTVTSSTWPSQSITCNVAHPASSTKVDKKIEPRGPTIKPCPPCKCPAPNLLGGPSVFIFPPKIKDVLMISLSPIVTCVVVDVSEDDPDVQISWFVNNVEVHTAQTQTHREDYNSTLRVVSALPIQHQDWMSGKEFKCKVNNKDLPAPIERTISKPKGSVRAPQVYVLPPPEEEMTKKQVTLTCMVTDFMPEDIYVEWTNNGKTELNYKNTEPVLDSDGSYFMYSKLRVEKKNWVERNSYSCSVVHEGLHNHHTTKSFSRTPGK light: DVLMTQSPLSLPVSLGDQASIFCRSNQSIVHSNGNTYFEWYLQKPGQSPKLLIYKVSNRFSGVPDRFSGSGSGTDFTLRISRVEAEDLGIYYCFQGSHVPPTFGGGTKLEIKRADAAPTVSIFPPSSEQLTSGGASVVCFLNNFYPKDINVKWKIDGSERQNGVLNSWTDQDSKDSTYSMSSTLTLTKDEYERHNSYTCEATHKTSTSPIVKSFNRNEC | ~0.02 | ~0.04 | ~0.08 | ~0.03 | ~0.06 | ~0.04 | ~0.06 |  |
| 14A11, hybridoma supernatant (antibody, V domains shown, Mouse hybridoma antibody) VH: QITLKESGPGILQSSQTLSLTCSFSGVSLTTSGMGVSWIRQPSGKGLEWLAHIYWDDEKHYHPSLKSRLTISKDASRNQVFFRILSVDTADTATYYCALRYYGYRSFMDYWGQGTSVTVSS VL: DVLMTQSPLSLPVSLGDQASIFCRSNQSIVHSNGNTYFEWYLQKPGQSPKLLIYKVSNRFSGVPDRFSGSGSGTDFTLRISRVEAEDLGIYYCFQGSHVPPTFGGGTKLEIKR |  |  |  |  |  |  |  | no binding |
